Experimental data taken from paper PMC8104870.

Target: T1, bacteriophage phi29 DNA packaging ATPase gp16 (bacteriophage phi29), P11014
T1 chain: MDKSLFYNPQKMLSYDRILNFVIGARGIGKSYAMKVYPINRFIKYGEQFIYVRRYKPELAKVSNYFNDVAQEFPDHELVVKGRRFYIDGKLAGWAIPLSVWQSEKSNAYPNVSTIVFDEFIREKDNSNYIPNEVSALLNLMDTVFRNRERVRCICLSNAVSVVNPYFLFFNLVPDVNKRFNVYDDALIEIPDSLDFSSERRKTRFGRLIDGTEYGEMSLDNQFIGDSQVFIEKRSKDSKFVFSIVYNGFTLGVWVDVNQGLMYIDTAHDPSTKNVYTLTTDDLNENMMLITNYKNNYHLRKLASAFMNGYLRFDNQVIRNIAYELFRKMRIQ
Test: cryo-EM structure
Settings: remark: other sources report otherwise

B1: bacteriophage phi29 DNA packaging ATPase gp16, P11014 1-332 (enzyme)
chain: T1 chain
- stoichiometry N: 5
